{"source": "patent US20230279130A1", "target": "full length human CCR8 (hCCR8) (human) (UniProt P51685)", "data": [{"binder": "benchmark anti-CCR8 antibody 4A19 (Bristol Myers Squibb) (antibody, from another filing, IgG1, V domains shown) VH: QVQLVQSGAEVKKPGASVKVSCKASGYTFTDSEMHWVRQATGQGLEWMGAIQPETGGTAYNQKFKARVTMTRDTSISTAYMELSSLRSEDTAVYYCARRRRNFDYWGQGTLVTVSS VL: DIVMTQTPLSLSVTPGQPASISCRSSQSLFHSSGNTYLHWYLQKPGQPPQLLIYKVSNRFSGVPDRFSGSGSGTDFTLKISRVEAEDVGVYYCSQSTHVPFTFGQGTKLEIKR", "values": [{"measurement": "IC50, inhibition of chemotaxis of hCCR8-transfected P815 cells to 1 nM CCL1 (intact IgG1, Cell Titer Glo)", "result": 6.53, "unit": "ng/mL"}]}]}
